According to paper PMC9913320, “Development of ^99mTc-Hynic-Adh-1 Molecular Probe Specifically Targeting N-Cadherin and Its Preliminary Experimental Study in Monitoring Drug Resistance of Non-Small-Cell Lung Cancer” (Cancers, 2023):

What was measured:
[1] = Partition coefficient (Log D), 1-octanol/PBS; format: physicochemical; details: 1-octanol and PBS (pH 7.4), n = 3
Experimental: Partition coefficients (Log D) of ^99mTc-HYNIC-ADH-1 were measured through the assessment of the distribution of radioactivity in 1-octanol and phosphate buffer in a 2 mL centrifuge tube. A 10 µL ^99mTc-HYNIC-ADH-1 solution was added to a vial containing 1 mL each of 1-octanol and PBS (pH 7.4). After vortexing for 10 min, the vial was centrifuged for 10 min to ensure complete separation of the layers. Then, 10 µL of each layer was pipetted into separate test tubes, and the counts were measured using a γ counter. Partition coefficients are shown as the log counts in 1-octanol vs. PBS layers (n = 3).

[2] = In vitro stability in PBS; format: physicochemical; details: PBS pH 7.4, room temperature
Experimental: In vitro stability studies of ^99mTc-HYNIC-ADH1 were performed in FBS as well as PBS solution. A total of 50 μL of ^99mTc-HYNIC-ADH1 was mixed with 950 μL of FBS (or PBS), and its radioactivity was measured after being incubated at room temperature for 0.5, 1, 2, 4, 6 and 24 h, respectively.
For stability assessments, ^99mTc-HYNIC-ADH-1 (3.7 MBq) was incubated in PBS (pH 7.4) or FBS for 24 h. […] The radiochemical purities were 98.51%, 98.50%, 97.97%, 98.02%, 98.81%, 98.09% and 98.09% in FBS at room temperature at 0.5, 1, 2, 3, 6, 12 and 24 h, respectively.

[3] = test system: PC9GR tumor; test: Biodistribution in xenograft-bearing nude mice, PC9GR tumor; format: in vivo, BALB/c nude mice; details: biodistribution, tumor-bearing mice
Experimental: (§1) All animal research was performed in accordance with the Zhejiang University Institutional Animal Care and Use Committee guidelines. PC9 and PC9GR cells (2 × 10^6 cells per mice) were injected subcutaneously into the flanks of 2- to 4-week old BALB/c nude mice (left: PC9GR, right: PC9). The cells were allowed to grow 3–5 weeks until tumors were 1 ± 0.5 cm^3 in volume. Normal C57/BL6 mice (aged 6 to 8 wks old) were obtained from the Animal Center of the First Affiliated Hospital of Zhejiang University. All animals were maintained with free access to food and water and used a standard diet, bedding and environment.
(§2) The radiotracer (0.1 mL, 0.74 MBq) was injected intravenously into normal C57/BL6 mice and xenograft models as previously described (n = 4 per group per time) via the tail vein. After different time intervals (30, 60, 120 and 240 min), the mice were sacrificed by cervical dislocation, and their blood, tumors and major organs (brain, heart, lung, liver, spleen, kidney, stomach, intestine, muscle, bone and skin) were harvested and weighed. The radioactivity of each sample was measured with a γ-counter. Values are shown as the percentage of the injected dose per gram (%ID/g), which corrected for background and decay to maintain consistency.

[4] = as above; format: in vivo, BALB/c nude mice; details: mouse, iv, 0.74 MBq, xenograft-bearing nude mice, i.v., read-out: Biodistribution, T(PC9GR)
Experimental: as §1, §2

[5] = Pharmacokinetic studies (blood radioactivity, PK solver); format: in vivo; details: C57/BL6 mice, i.v.
Experimental: For the pharmacokinetic studies, four C57/BL6 mice weighing 18–20 g were administrated with ^99mTc-HYNIC-ADH1 (0.1 mL, 0.74 MBq) by i.v. injection into the tail vein. An array of blood samples was acquired and weighed by pinching the tail with a syringe at 2, 5, 15, 20, 30, 45, 60, 90, 120 and 240 min post-injection (p.i.). Radioactivity was calculated as the % of dose per g of tissue per body weight (%ID/g) expressed over time. […] Pharmacokinetics was assayed using PK solver 2.0.

[6] = test system: PC9GR tumor; test: Small animal SPECT/CT imaging, ROI analysis; format: in vivo, BALB/c nude mice; details: 1 h
Experimental: as §1
(§3) Xenograft models were imaged using a nanoScan SPECT/CT (Mediso, Hungary) in vivo imaging system and anesthetized with 2% isoflurane before imaging. Mice in the non-blocked group (n = 4) were injected via tail vein with 3.7 MBq (100 μL) of radiotracer and imaged at different time points (1, 2 and 6 h). In the blocked group, 100 μL excess ADH-1 was injected through the tail vein 30 min in advance, and then the same volume and dose of imaging agent were injected for 1 h after imaging.
(§4) Three-dimensional ROIs were delineated along the edge of the tumor using SPECT/CT analysis software. Spherical ROIs of 0.03 cm^3 were delineated in organs or tissues (liver and muscle). The radiation intensity of each region was measured, and the tumor/non-tumor ratio was calculated.

[7] = test system: PC9 tumor; test: Small animal SPECT/CT imaging, ROI analysis; format: in vivo, BALB/c nude mice; details: non-blocked, 1 h
Experimental: as §1, §3, §4

CC(=O)N[C@H]1CSSC[C@@H](C(=O)NCCNC(=O)c2ccc(NN)nc2)NC(=O)[C@H](C(C)C)NC(=O)[C@H](C)NC(=O)[C@H](Cc2c[nH]cn2)NC1=O [^99mTc-HYNIC-ADH-1, metal not drawn]
logD [1]: -2.45 ± 0.1 | radiochemical purity ([2]; 0.5 h): 99.01% | radiochemical purity ([2]; 1 h): 98.81% | radiochemical purity ([2]; 2 h): 98.55% | radiochemical purity ([2]; 3 h): 99.02% | radiochemical purity ([2]; 6 h): 98.52% | radiochemical purity ([2]; 12 h): 98.01% | T/NT PC9GR/Kidney ([3]; 30 min): 0.42 ± 0.10 | T/NT PC9GR/Liver ([3]; 30 min): 1.64 ± 0.24 | T/NT PC9GR/Muscle ([3]; 30 min): 2.41 ± 0.12 | T/NT PC9GR/Kidney ([3]; 1 h): 0.27 ± 0.04 | T/NT PC9GR/Liver ([3]; 1 h): 1.58 ± 0.12 | T/NT PC9GR/Muscle ([3]; 1 h): 2.64 ± 0.47 | T/NT PC9GR/Kidney ([3]; 2 h): 0.49 ± 0.20 | T/NT PC9GR/Liver ([3]; 2 h): 2.14 ± 0.69 | T/NT PC9GR/Muscle ([3]; 2 h): 5.19 ± 1.89 | T/NT PC9GR/Kidney ([3]; 4 h): 0.26 ± 0.13 | T/NT PC9GR/Liver ([3]; 4 h): 1.36 ± 0.69 | T/NT PC9GR/Muscle ([3]; 4 h): 3.62 ± 1.92 | tissue uptake at 2 h ([4]; tumor (PC9GR), 120 min): 1.32 ± 0.08 %ID/g | tissue uptake at 0.5 h ([4]; tumor, 30 min): 1.09 ± 0.15 %ID/g | tissue uptake at 1 h ([4]; tumor, 60 min): 1.26 ± 0.1 %ID/g | tissue uptake at 4 h ([4]; tumor, 240 min): 0.75 ± 0.19 %ID/g | AUC(0–t) [5]: 0.0593 µg·min/L | AUC(0–∞) [5]: 0.0595 µg·min/L | K10 [5]: 0.0815 min⁻¹ | K12 [5]: 0.1511 min⁻¹ | K21 [5]: 0.0794 min⁻¹ | V1 [5]: 68.753 L/kg | T1/2α ([5]; two-compartment model): 2.3925 min | half-life ([5]; mouse, blood, iv, 0.74 MBq, two-compartment model, read-out: T1/2β): 31 min | T/N (tumor to adjacent muscle radioactivity intensity, SPECT/CT ROI) ([6]; blocked group (excess unlabeled ADH-1 30 min in advance)): 3.69 ± 0.50 | T/N (tumor to adjacent muscle radioactivity intensity, SPECT/CT ROI) ([6]; non-blocked): 7.73 ± 0.54 | T/N (tumor to adjacent muscle radioactivity intensity, SPECT/CT ROI) [7]: 3.66 ± 0.78
